Data taken from the RNAGym collection of RNA variant scans (doi:10.1093/molbev/msab373).

B1: Azoarcus group I ribozyme (parent)
chain: GUGCCUUGCGCCGGGAAACCACGCAAGGGAUGGUGUCAAAUUCGGCGAAACCUAAGCGCCCGCCCGGGCGUAUGGCAACGCCGAGCCAAGCUUCGGCGCCUGCGCCGAUGAAGGUGUAGAGACUAGACGGCACCCACCUAAGGCAAACGCUAUGGUGAAGGCAUAGUCCAGGGAGUGGCGAAAGUCACACAAACCGG

Variants of: B1
Assay: reverse-splicing fitness (ratio to wild type); higher = more active; in vitro selection; Mg2+ level not given
Summary of the method: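 An in vitro group I ribozyme library with randomized positions was T7-transcribed and gel-purified. In triplicate, 10 pmol RNA in EPPS pH 7.5 was reacted with 50 pmoles of a 30-nt RNA substrate for 1 h at 37 °C across several added MgCl2 levels (1–48 mM), then stopped with EDTA. Products were reverse transcribed from a substrate-complementary primer, PCR-amplified and sequenced (HiSeq 4000). Fitness is a variant's read proportion after selection over that before, normalised to wild type.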

| Variant | reverse-splicing fitness |
| --- | --- |
| C82A A145G C150G C169A U176A | 0.015 |
| C82G A111C A120C A145G C150A C169G | 0.00768 |
| C82G A111C A120C A145G C150A C169A | 0.0122 |
| C82A C150G C169U U176G | 0.00641 |
| C82A C150G C169U U176A | 0.00724 |
| C82A C150G C169U U176C | 0.0109 |
| C82A C150U C169U U176G | 0.00577 |
| C82A C150U C169U U176A | 0.0141 |
| C82A C150U C169U U176C | 0.016 |
| C82A A145G C150A C169G U176C | 0.0281 |
| C82A A145G C150A C169G U176G | 0.0061 |
| C82A A145G C150A C169G U176A | 0.0164 |
| C82A C150G C169G U176A | 0.00711 |
| C82A C150G C169G U176C | 0.00553 |
| C82A C150G C169G U176G | 0.00581 |
| C82A A145G C150U C169G U176C | 0.02 |
| C82A A145G C150U C169G U176G | 0.00547 |
| C82A A145G C150U C169G U176A | 0.0138 |
| C82G A111C A120C A145C C150G | 0.0093 |
| C82G A111C A120C A145C C150A | 0.00907 |
| C82G A111C A120C A145C C150U | 0.0168 |

| Variant | reverse-splicing fitness |
| --- | --- |
| C82A A145G C150U C169A U176A | 0.0161 |
| C82A A145G C150U C169A U176C | 0.0166 |
| C82A A145G C150U C169A U176G | 0.00665 |
| C82A A145C C150G C169G U176A | 0.00895 |
| C82A A145C C150G C169G U176C | 0.0067 |
| C82A A145C C150G C169G U176G | 0.00508 |
| C82A A145C C150U C169G U176C | 0.0113 |
| C82A A145C C150U C169G U176A | 0.0196 |
| C82A A145C C150U C169G U176G | 0.00628 |
| C82A C150U C169A U176C | 0.0144 |
| C82A C150U C169A U176A | 0.0169 |
| C82A C150U C169A U176G | 0.00593 |
| C82G A111C A120C A145C C150G C169A U176C | 0.00796 |
| C82G A111C A120C A145C C150G C169A U176A | 0.00832 |
| C82G A111C A120C A145C C150G C169A U176G | 0.00733 |
| C82A C150A | 0.0666 |
| C82A C150U | 0.367 |
| C82A C150G | 0.0487 |
| C82A A145U C150A C169G | 0.00813 |
| C82A A145U C150A C169U | 0.00955 |
| C82A A145U C150A C169A | 0.00847 |

| Variant | reverse-splicing fitness |
| --- | --- |
| C82G A111C A120C A145G C150A | 0.0148 |
| C82A A145C C150A C169A U176C | 0.00566 |
| C82A A145C C150A C169A U176G | 0.00593 |
| C82A A145C C150A C169A U176A | 0.0113 |
| C82G A111C A120C A145C C169U U176G | 0.00508 |
| C82G A111C A120C A145C C169U U176A | 0.0165 |
| C82G A111C A120C A145C C169U U176C | 0.0151 |
| C82A A145U C169G U176C | 0.0127 |
| C82A A145U C169G U176A | 0.0105 |
| C82A A145U C169G U176G | 0.00461 |
| C82G A111C A120C A145C U176G | 0.00711 |
| C82G A111C A120C A145C U176C | 0.0241 |
| C82G A111C A120C A145C U176A | 0.0166 |
| C82A C150U U176A | 0.24 |
| C82A C150U U176C | 0.253 |
| C82A C150U U176G | 0.069 |
| C82A A145C C150A C169U U176G | 0.00553 |
| C82A A145C C150A C169U U176A | 0.015 |
| C82A A145C C150A C169U U176C | 0.00759 |
| C82A A120U U176C | 0.0627 |
| C82A A120U U176G | 0.0095 |

| Variant | reverse-splicing fitness |
| --- | --- |
| C82A A145G C169A U176A | 0.0185 |
| C82A A145G C169A U176C | 0.0322 |
| C82A A145G C169A U176G | 0.00573 |
| C82A A145U C150U C169A | 0.00956 |
| C82A A145U C150U C169G | 0.00961 |
| C82A A145U C150U C169U | 0.0127 |
| C82A A145C C150U C169U | 0.0111 |
| C82A A145C C150U C169A | 0.00801 |
| C82A A145C C150U C169G | 0.00747 |
| C82G A111C A120C A145G | 0.053 |
| C82G A111C A120C A145C | 0.0447 |
| C82G A111C A120C A145C C150U U176C | 0.0129 |
| C82G A111C A120C A145C C150U U176G | 0.00681 |
| C82G A111C A120C A145C C150U U176A | 0.0114 |
| C82A A145G C150U C169U U176A | 0.0129 |
| C82A A145G C150U C169U U176C | 0.0136 |
| C82A A145G C150U C169U U176G | 0.00555 |
| C82A A145G C169U U176G | 0.00459 |
| C82A A145G C169U U176A | 0.0146 |
| C82A A145G C169U U176C | 0.0143 |
